The text below walks through data of patent US20150217006A1, “AL-F-18-LABELED, AL-F-19-LABELED AND GA-68-LABELED GASTRIN-RELEASING PEPTIDE RECEPTOR (GRPR)-ANTAGONISTS FOR IMAGING OF PROSTATE CANCER” (Immunomedics, Inc., priority 2014, published 2015).

For this assay, the target named is gastrin-releasing peptide receptor (GRPR) (human) (UniProt P30550). Kind of assay: competition with 125I-BBN on PC-3 cells, repeat experiment, inhibitor 250 to 2 nM.
gastrin-releasing peptide receptor (GRPR) (human), sequence (P30550 whole entry): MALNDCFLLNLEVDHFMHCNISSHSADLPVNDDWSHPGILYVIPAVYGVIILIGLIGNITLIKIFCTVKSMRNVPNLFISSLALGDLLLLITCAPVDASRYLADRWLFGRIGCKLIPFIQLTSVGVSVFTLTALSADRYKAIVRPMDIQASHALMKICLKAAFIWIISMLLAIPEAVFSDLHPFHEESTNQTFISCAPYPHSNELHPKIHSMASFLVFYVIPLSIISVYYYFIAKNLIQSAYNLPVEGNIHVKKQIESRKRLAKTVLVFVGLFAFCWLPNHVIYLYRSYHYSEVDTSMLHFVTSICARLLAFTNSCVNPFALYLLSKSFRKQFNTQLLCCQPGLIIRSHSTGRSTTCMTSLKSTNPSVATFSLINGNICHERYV

On to commercially available BBN peptide, for which the IC50 came to 0.0244 µM.
